This data set deals with SwaI restriction endonuclease (native) (Staphylococcus warneri). Description: cleavage_in_vitro. Particulars: more than 544,000 units in Source-15S fractions 17-19; restriction activity assayed on M13mp19 RF DNA.

M13mp19 RF DNA displayed an activity of 544000 units.

(Values after patent US6245545.)
